Laboratory results published in patent US20090291890A1 (published 2009).

Biological target: Factor X (FX) (Homo sapiens (Human)) (UniProt P00742)
Sequence (P00742 41-488 limits assumed): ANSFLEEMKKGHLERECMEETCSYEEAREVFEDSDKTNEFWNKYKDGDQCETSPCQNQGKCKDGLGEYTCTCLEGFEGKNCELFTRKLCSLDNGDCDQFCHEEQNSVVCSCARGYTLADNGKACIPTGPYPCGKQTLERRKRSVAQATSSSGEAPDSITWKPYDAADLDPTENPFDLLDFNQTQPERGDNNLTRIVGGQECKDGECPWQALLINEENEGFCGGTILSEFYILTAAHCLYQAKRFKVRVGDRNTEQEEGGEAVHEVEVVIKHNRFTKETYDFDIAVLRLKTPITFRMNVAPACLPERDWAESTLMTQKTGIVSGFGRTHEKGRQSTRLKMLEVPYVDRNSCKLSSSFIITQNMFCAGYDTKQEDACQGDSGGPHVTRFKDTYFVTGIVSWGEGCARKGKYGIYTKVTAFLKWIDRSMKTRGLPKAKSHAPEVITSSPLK

Binder | kcat/KM, TF-Dependent Indirect Assay [M⁻¹ s⁻¹]
FVIIa variant H373F (enzyme) ANAFLEELRPGSLERECKEEQCSFEEAREIFKDAERTKLFWISYSDGDQCASSPCQNGGSCKDQLQSYICFCLPAFEGRNCETHKDDQLICVNENGGCEQYCSDHTGTKRSCRCHEGYSLLADGVSCTPTVEYPCGKIPILEKRNASKPQGRIVGGKVCPKGECPWQVLLLVNGAQLCGGTLINTIWVVSAAHCFDKIKNWRNLIAVLGEHDLSEHDGDEQSRRVAQVIIPSTYVPGTTNHDIALLRLHQPVVLTDHVVPLCLPERTFSERTLAFVRFSLVSGWGQLLDRGATALELMVLNVPRLMTQDCLQQSRKVGDSPNITEYMFCAGYSDGSKDSCKGDSGGPHATHYRGTWYLTGIVSWGQGCATVGFFGVYTRVSQYIEWLQKLMRSEPRPGVLLRAPFP | 5.11e+07
FVIIa variant S52A (enzyme) ANAFLEELRPGSLERECKEEQCSFEEAREIFKDAERTKLFWISYSDGDQCAASPCQNGGSCKDQLQSYICFCLPAFEGRNCETHKDDQLICVNENGGCEQYCSDHTGTKRSCRCHEGYSLLADGVSCTPTVEYPCGKIPILEKRNASKPQGRIVGGKVCPKGECPWQVLLLVNGAQLCGGTLINTIWVVSAAHCFDKIKNWRNLIAVLGEHDLSEHDGDEQSRRVAQVIIPSTYVPGTTNHDIALLRLHQPVVLTDHVVPLCLPERTFSERTLAFVRFSLVSGWGQLLDRGATALELMVLNVPRLMTQDCLQQSRKVGDSPNITEYMFCAGYSDGSKDSCKGDSGGPHATHYRGTWYLTGIVSWGQGCATVGHFGVYTRVSQYIEWLQKLMRSEPRPGVLLRAPFP | 4.66e+07
FVIIa variant A292N/A294S (enzyme) ANAFLEELRPGSLERECKEEQCSFEEAREIFKDAERTKLFWISYSDGDQCASSPCQNGGSCKDQLQSYICFCLPAFEGRNCETHKDDQLICVNENGGCEQYCSDHTGTKRSCRCHEGYSLLADGVSCTPTVEYPCGKIPILEKRNASKPQGRIVGGKVCPKGECPWQVLLLVNGAQLCGGTLINTIWVVSAAHCFDKIKNWRNLIAVLGEHDLSEHDGDEQSRRVAQVIIPSTYVPGTTNHDIALLRLHQPVVLTDHVVPLCLPERTFSERTLAFVRFSLVSGWGQLLDRGNTSLELMVLNVPRLMTQDCLQQSRKVGDSPNITEYMFCAGYSDGSKDSCKGDSGGPHATHYRGTWYLTGIVSWGQGCATVGHFGVYTRVSQYIEWLQKLMRSEPRPGVLLRAPFP | 0
FVIIa variant S60A (enzyme) ANAFLEELRPGSLERECKEEQCSFEEAREIFKDAERTKLFWISYSDGDQCASSPCQNGGACKDQLQSYICFCLPAFEGRNCETHKDDQLICVNENGGCEQYCSDHTGTKRSCRCHEGYSLLADGVSCTPTVEYPCGKIPILEKRNASKPQGRIVGGKVCPKGECPWQVLLLVNGAQLCGGTLINTIWVVSAAHCFDKIKNWRNLIAVLGEHDLSEHDGDEQSRRVAQVIIPSTYVPGTTNHDIALLRLHQPVVLTDHVVPLCLPERTFSERTLAFVRFSLVSGWGQLLDRGATALELMVLNVPRLMTQDCLQQSRKVGDSPNITEYMFCAGYSDGSKDSCKGDSGGPHATHYRGTWYLTGIVSWGQGCATVGHFGVYTRVSQYIEWLQKLMRSEPRPGVLLRAPFP | 5.15e+07
FVIIa variant H373A (enzyme) ANAFLEELRPGSLERECKEEQCSFEEAREIFKDAERTKLFWISYSDGDQCASSPCQNGGSCKDQLQSYICFCLPAFEGRNCETHKDDQLICVNENGGCEQYCSDHTGTKRSCRCHEGYSLLADGVSCTPTVEYPCGKIPILEKRNASKPQGRIVGGKVCPKGECPWQVLLLVNGAQLCGGTLINTIWVVSAAHCFDKIKNWRNLIAVLGEHDLSEHDGDEQSRRVAQVIIPSTYVPGTTNHDIALLRLHQPVVLTDHVVPLCLPERTFSERTLAFVRFSLVSGWGQLLDRGATALELMVLNVPRLMTQDCLQQSRKVGDSPNITEYMFCAGYSDGSKDSCKGDSGGPHATHYRGTWYLTGIVSWGQGCATVGAFGVYTRVSQYIEWLQKLMRSEPRPGVLLRAPFP | 3.11e+07
FVIIa variant G318N (enzyme) ANAFLEELRPGSLERECKEEQCSFEEAREIFKDAERTKLFWISYSDGDQCASSPCQNGGSCKDQLQSYICFCLPAFEGRNCETHKDDQLICVNENGGCEQYCSDHTGTKRSCRCHEGYSLLADGVSCTPTVEYPCGKIPILEKRNASKPQGRIVGGKVCPKGECPWQVLLLVNGAQLCGGTLINTIWVVSAAHCFDKIKNWRNLIAVLGEHDLSEHDGDEQSRRVAQVIIPSTYVPGTTNHDIALLRLHQPVVLTDHVVPLCLPERTFSERTLAFVRFSLVSGWGQLLDRGATALELMVLNVPRLMTQDCLQQSRKVNDSPNITEYMFCAGYSDGSKDSCKGDSGGPHATHYRGTWYLTGIVSWGQGCATVGHFGVYTRVSQYIEWLQKLMRSEPRPGVLLRAPFP | 5.5e+07
FVIIa variant Q366E (enzyme) ANAFLEELRPGSLERECKEEQCSFEEAREIFKDAERTKLFWISYSDGDQCASSPCQNGGSCKDQLQSYICFCLPAFEGRNCETHKDDQLICVNENGGCEQYCSDHTGTKRSCRCHEGYSLLADGVSCTPTVEYPCGKIPILEKRNASKPQGRIVGGKVCPKGECPWQVLLLVNGAQLCGGTLINTIWVVSAAHCFDKIKNWRNLIAVLGEHDLSEHDGDEQSRRVAQVIIPSTYVPGTTNHDIALLRLHQPVVLTDHVVPLCLPERTFSERTLAFVRFSLVSGWGQLLDRGATALELMVLNVPRLMTQDCLQQSRKVGDSPNITEYMFCAGYSDGSKDSCKGDSGGPHATHYRGTWYLTGIVSWGEGCATVGHFGVYTRVSQYIEWLQKLMRSEPRPGVLLRAPFP | 4.77e+07
FVIIa variant E394N/P395A/R396S (enzyme) ANAFLEELRPGSLERECKEEQCSFEEAREIFKDAERTKLFWISYSDGDQCASSPCQNGGSCKDQLQSYICFCLPAFEGRNCETHKDDQLICVNENGGCEQYCSDHTGTKRSCRCHEGYSLLADGVSCTPTVEYPCGKIPILEKRNASKPQGRIVGGKVCPKGECPWQVLLLVNGAQLCGGTLINTIWVVSAAHCFDKIKNWRNLIAVLGEHDLSEHDGDEQSRRVAQVIIPSTYVPGTTNHDIALLRLHQPVVLTDHVVPLCLPERTFSERTLAFVRFSLVSGWGQLLDRGATALELMVLNVPRLMTQDCLQQSRKVGDSPNITEYMFCAGYSDGSKDSCKGDSGGPHATHYRGTWYLTGIVSWGQGCATVGHFGVYTRVSQYIEWLQKLMRSNASPGVLLRAPFP | 5.32e+07
FVIIa variant R202S (enzyme) ANAFLEELRPGSLERECKEEQCSFEEAREIFKDAERTKLFWISYSDGDQCASSPCQNGGSCKDQLQSYICFCLPAFEGRNCETHKDDQLICVNENGGCEQYCSDHTGTKRSCRCHEGYSLLADGVSCTPTVEYPCGKIPILEKRNASKPQGRIVGGKVCPKGECPWQVLLLVNGAQLCGGTLINTIWVVSAAHCFDKIKNWSNLIAVLGEHDLSEHDGDEQSRRVAQVIIPSTYVPGTTNHDIALLRLHQPVVLTDHVVPLCLPERTFSERTLAFVRFSLVSGWGQLLDRGATALELMVLNVPRLMTQDCLQQSRKVGDSPNITEYMFCAGYSDGSKDSCKGDSGGPHATHYRGTWYLTGIVSWGQGCATVGHFGVYTRVSQYIEWLQKLMRSEPRPGVLLRAPFP | 2.57e+07

Next, values leading:

kcat/KM, TF-Dependent Indirect Assay [M⁻¹ s⁻¹] | Binder
5.64e+07 | FVIIa variant Q366N (enzyme) ANAFLEELRPGSLERECKEEQCSFEEAREIFKDAERTKLFWISYSDGDQCASSPCQNGGSCKDQLQSYICFCLPAFEGRNCETHKDDQLICVNENGGCEQYCSDHTGTKRSCRCHEGYSLLADGVSCTPTVEYPCGKIPILEKRNASKPQGRIVGGKVCPKGECPWQVLLLVNGAQLCGGTLINTIWVVSAAHCFDKIKNWRNLIAVLGEHDLSEHDGDEQSRRVAQVIIPSTYVPGTTNHDIALLRLHQPVVLTDHVVPLCLPERTFSERTLAFVRFSLVSGWGQLLDRGATALELMVLNVPRLMTQDCLQQSRKVGDSPNITEYMFCAGYSDGSKDSCKGDSGGPHATHYRGTWYLTGIVSWGNGCATVGHFGVYTRVSQYIEWLQKLMRSEPRPGVLLRAPFP
1.88e+07 | FVIIa variant Q366D (enzyme) ANAFLEELRPGSLERECKEEQCSFEEAREIFKDAERTKLFWISYSDGDQCASSPCQNGGSCKDQLQSYICFCLPAFEGRNCETHKDDQLICVNENGGCEQYCSDHTGTKRSCRCHEGYSLLADGVSCTPTVEYPCGKIPILEKRNASKPQGRIVGGKVCPKGECPWQVLLLVNGAQLCGGTLINTIWVVSAAHCFDKIKNWRNLIAVLGEHDLSEHDGDEQSRRVAQVIIPSTYVPGTTNHDIALLRLHQPVVLTDHVVPLCLPERTFSERTLAFVRFSLVSGWGQLLDRGATALELMVLNVPRLMTQDCLQQSRKVGDSPNITEYMFCAGYSDGSKDSCKGDSGGPHATHYRGTWYLTGIVSWGDGCATVGHFGVYTRVSQYIEWLQKLMRSEPRPGVLLRAPFP
6.59e+07 | FVIIa variant Q366V (enzyme) ANAFLEELRPGSLERECKEEQCSFEEAREIFKDAERTKLFWISYSDGDQCASSPCQNGGSCKDQLQSYICFCLPAFEGRNCETHKDDQLICVNENGGCEQYCSDHTGTKRSCRCHEGYSLLADGVSCTPTVEYPCGKIPILEKRNASKPQGRIVGGKVCPKGECPWQVLLLVNGAQLCGGTLINTIWVVSAAHCFDKIKNWRNLIAVLGEHDLSEHDGDEQSRRVAQVIIPSTYVPGTTNHDIALLRLHQPVVLTDHVVPLCLPERTFSERTLAFVRFSLVSGWGQLLDRGATALELMVLNVPRLMTQDCLQQSRKVGDSPNITEYMFCAGYSDGSKDSCKGDSGGPHATHYRGTWYLTGIVSWGVGCATVGHFGVYTRVSQYIEWLQKLMRSEPRPGVLLRAPFP
2.7e+07 | FVIIa variant Q366S (enzyme) ANAFLEELRPGSLERECKEEQCSFEEAREIFKDAERTKLFWISYSDGDQCASSPCQNGGSCKDQLQSYICFCLPAFEGRNCETHKDDQLICVNENGGCEQYCSDHTGTKRSCRCHEGYSLLADGVSCTPTVEYPCGKIPILEKRNASKPQGRIVGGKVCPKGECPWQVLLLVNGAQLCGGTLINTIWVVSAAHCFDKIKNWRNLIAVLGEHDLSEHDGDEQSRRVAQVIIPSTYVPGTTNHDIALLRLHQPVVLTDHVVPLCLPERTFSERTLAFVRFSLVSGWGQLLDRGATALELMVLNVPRLMTQDCLQQSRKVGDSPNITEYMFCAGYSDGSKDSCKGDSGGPHATHYRGTWYLTGIVSWGSGCATVGHFGVYTRVSQYIEWLQKLMRSEPRPGVLLRAPFP
3.42e+07 | FVIIa variant Q366T (enzyme) ANAFLEELRPGSLERECKEEQCSFEEAREIFKDAERTKLFWISYSDGDQCASSPCQNGGSCKDQLQSYICFCLPAFEGRNCETHKDDQLICVNENGGCEQYCSDHTGTKRSCRCHEGYSLLADGVSCTPTVEYPCGKIPILEKRNASKPQGRIVGGKVCPKGECPWQVLLLVNGAQLCGGTLINTIWVVSAAHCFDKIKNWRNLIAVLGEHDLSEHDGDEQSRRVAQVIIPSTYVPGTTNHDIALLRLHQPVVLTDHVVPLCLPERTFSERTLAFVRFSLVSGWGQLLDRGATALELMVLNVPRLMTQDCLQQSRKVGDSPNITEYMFCAGYSDGSKDSCKGDSGGPHATHYRGTWYLTGIVSWGTGCATVGHFGVYTRVSQYIEWLQKLMRSEPRPGVLLRAPFP
